In general, stoichiometry N refers to a count of units in the complex or per binding partner. One may read the Kd as the free concentration of one partner at which half of the binding sites on the other are occupied at equilibrium, for simple one-to-one binding. Higher therefore signals lower affinity.

Consider 10 molecules from PMC10661694, “Architecture and regulation of a GDNF-GFRα1 synaptic adhesion assembly” (Nature Communications, 2023).

The chains are these.
T1: full length, GPI-anchored rat GFRα1 (mGFRα1^FL; HA-rGFRα1^1-468) (rat) (UniProt Q62997)
T1 sequence (chain, GPI-anchor): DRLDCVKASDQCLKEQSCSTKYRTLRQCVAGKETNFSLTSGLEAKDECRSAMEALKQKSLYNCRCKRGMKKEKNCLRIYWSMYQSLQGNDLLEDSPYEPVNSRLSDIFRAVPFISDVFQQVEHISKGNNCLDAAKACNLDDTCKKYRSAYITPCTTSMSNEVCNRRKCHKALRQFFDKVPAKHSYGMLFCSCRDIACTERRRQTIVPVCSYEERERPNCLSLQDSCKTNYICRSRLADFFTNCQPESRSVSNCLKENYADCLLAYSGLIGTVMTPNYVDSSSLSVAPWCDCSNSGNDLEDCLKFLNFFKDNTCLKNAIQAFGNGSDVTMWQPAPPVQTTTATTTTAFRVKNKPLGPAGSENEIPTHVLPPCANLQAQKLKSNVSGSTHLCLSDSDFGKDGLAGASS

T2: human GDNF structured region, residues 110-211 (hGDNF^mat) (human, UniProt P39905 110-211)
T2 chain: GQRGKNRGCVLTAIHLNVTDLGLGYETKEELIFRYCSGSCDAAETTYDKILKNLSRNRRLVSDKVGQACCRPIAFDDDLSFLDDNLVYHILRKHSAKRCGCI

B1: rat GDNF (rGDNF) (ligand)
chain: SPDKQAAALPRRERNRQAAAASPENSRGKGRRGQRGKNRGCVLTAIHLNVTDLGLGYETKEELIFRYCSGSCEAAETMYDKILKNLSRSRRLTSDKVGQACCRPVAFDDDLSFLDDSLVYHILRKHSAKRCGCI
B2: zebrafish GFRα1 residues 144-368 (zGFRα1^D2-D3+) (domain or fragment, UniProt Q98TT9 144-368, looked up)
chain: EPALAKENNCLNAAKACNLNDTCKKYRSAYISPCTSRVSTAEVCNKRKCHKALRQFFDKVPPKHSYGMLYCSCPLGDQSACSERRRQTIVPACSYEDKERPNCLTLQVSCKTNYICRSRLADFFTNCQPEPLSLSGCLKENYADCLLSYSGLIGTVMTPNYLRSPKISVSPFCDCSSSGNSKEECDRFTEFFTDNACLRNAIQAFGNGTDVSVWHPMPPVQTTTS
notes: GFRα1a, zebrafish, residues 144-368 (D2-D3 and part of the C-tail, lacking D1); also called zGFRα1^144-368; source: Expi293F, secreted; purified (Ni-NTA, SEC) or co-expressed with zGDNF^mat and co-purified; not shown: His6, C-terminal, kept
B3: zebrafish GDNF residues 134-235 (mature form, zGDNF^mat), crystallised in complex with zGFRα1^D1-D3 (ligand, UniProt Q98TU0 134-235, looked up)
chain: RVKGQGRGCLLKEIHLNVTDLDLGYRTKEELIFRYCSGPCHDAETNYDKILNNLTHNKKLDKDTPSRTCCRPIAFDDDISFLDDSLEYHTLKKHSAKKCACV
modifications: N-linked glycan at the N-glycosylation site of all zGDNF protomers
notes: GDNF, zebrafish, residues 134-235 (mature form); the methods give 135-235 for zGDNF^mat; Covalent dimer
B4: hGFRα1^D1-CT-K251E (protein)
chain: DRLDCVKASDQCLKEQSCSTKYRTLRQCVAGKETNFSLASGLEAKDECRSAMEALKQKSLYNCRCKRGMKKEKNCLRIYWSMYQSLQGNDLLEDSPYEPVNSRLSDIFRVVPFISDVFQQVEHIPKGNNCLDAAKACNLDDICKKYRSAYITPCTTSVSNDVCNRRKCHKALRQFFDKVPAKHSYGMLFCSCRDIACTERRRQTIVPVCSYEEREKPNCLNLQDSCETNYICRSRLADFFTNCQPESRSVSSCLKENYADCLLAYSGLIGTVMTPNYIDSSSLSVAPWCDCSNSGNDLEECLKFLNFFKDNTCLKNAIQAFGNGSDVTVWQPAFPVQTTTATTTTALRVKNKPLGPAGSENEIPTHVLPPCANLQAQKLKSNVSGNTHLCISNGNYEKEG
B5: human GFRα1 residues 25-424 (hGFRα1^D1-CT) (domain or fragment)
chain: B4 chain with E227K
B6: hGFRα1^D1-CT-L287E (protein)
chain: B4 chain with E227K, L263E
B7: hGFRα1^D1-CT-K251E L287E (protein)
chain: B4 chain with L263E
B8: human GFRα1 residues 150-424 (hGFRα1^D2-CT) (domain or fragment)
chain: KGNNCLDAAKACNLDDICKKYRSAYITPCTTSVSNDVCNRRKCHKALRQFFDKVPAKHSYGMLFCSCRDIACTERRRQTIVPVCSYEEREKPNCLNLQDSCKTNYICRSRLADFFTNCQPESRSVSSCLKENYADCLLAYSGLIGTVMTPNYIDSSSLSVAPWCDCSNSGNDLEECLKFLNFFKDNTCLKNAIQAFGNGSDVTVWQPAFPVQTTTATTTTALRVKNKPLGPAGSENEIPTHVLPPCANLQAQKLKSNVSGNTHLCISNGNYEKEG
B9: zebrafish GFRα1 residues 20-353 (zGFRα1^D1-D3, lacking the GPI-anchor); ordered portion in the crystal zGFRα1^D2-D3 (domain or fragment, UniProt Q98TT9 144-353, looked up)
chain: EPALAKENNCLNAAKACNLNDTCKKYRSAYISPCTSRVSTAEVCNKRKCHKALRQFFDKVPPKHSYGMLYCSCPLGDQSACSERRRQTIVPACSYEDKERPNCLTLQVSCKTNYICRSRLADFFTNCQPEPLSLSGCLKENYADCLLSYSGLIGTVMTPNYLRSPKISVSPFCDCSSSGNSKEECDRFTEFFTDNACLRNAIQAFGNGTD
modifications: N-linked glycans (8 resolved for the 10 zGFRα1 protomers)
notes: GFRα1a, zebrafish, residues 20-353; In the crystal only D2-D3 is present (D1 clipped)
B10: zebrafish GDNF mature structured region, residues 135-235 (zGDNF^mat) (ligand, UniProt Q98TU0 135-235, looked up)
chain: VKGQGRGCLLKEIHLNVTDLDLGYRTKEELIFRYCSGPCHDAETNYDKILNNLTHNKKLDKDTPSRTCCRPIAFDDDISFLDDSLEYHTLKKHSAKKCACV
notes: GDNF, zebrafish, mature structured region, residues 135-235; The co-expressed form is called untagged; the methods describe no separate untagged construct, so both are kept as one molecule; also called untagged zGDNF^mat; soluble zGDNF^mat; source: Expi293F, secreted; not shown: His6, N-terminal, cleaved

Residue numbers refer to the chain shown, from its start. Numbers in names are those of the source.

For data set [1], the target named is T1, full length, GPI-anchored rat GFRα1 (mGFRα1^FL; HA-rGFRα1^1-468) (rat).
Data set [2] concerns the molecule itself. The data set is described as follows: negative-stain electron microscopy; zGDNF^mat-zGFRα1^D2-D3+ cross-linked with 0.1% glutaraldehyde, SEC (Superose 6 Increase) in 20 mM HEPES pH 7.5, 130 mM NaCl, ~700 kDa fraction imaged; reconstruction at 30 Å.
Data set [3] deals with the molecule itself. The data set is described as follows: crystal structure; zGDNF^mat-zGFRα1^D1-D3 complex at 2.5 mg/ml in 20 mM Tris pH 7.0, 100 mM NaCl, 1 mM CaCl2; sitting drop, 22 °C; D1 clipped during crystallisation; 2.65 Å, P2_1, ten copies in the asymmetric unit.
Data set [4] deals with T2, human GDNF structured region, residues …. Kind of data set: SPR. (In SPR one partner is held on a chip, and binding of the other changes the refractive index at the surface.)
The target in data set [5] is B2. The data set is described as follows: native gel or EMSA; blue native PAGE (3-12% Bis-Tris) of Ni2+-NTA purified co-expressed zGDNF^mat-zGFRα1 samples, 2 mg/ml, 10 mM HEPES pH 7.5, 130 mM NaCl, 1 mM CaCl2; time points. To be noted: both partners purified. On the technique in general: A gel shift assay detects complexes by their altered migration in electrophoresis.

In turn, B1 had an HEK293 cell adhesion assay: proportion of cell clusters of mGFRα1^FL-expressing cells after rat GDNF (200 ng/ml) in data set [1] of 5 fold.
With B2, the binding result in data set [2] is given as “binds”.
On to B3, for which the “stoichiometry N” value in data set [3] was 2 protomers in each covalent dimer.
Take B4: binding in data set [4] was characterised by a dissociation constant (Kd) of 48 nM.
B5: the affinity in data set [4], expressed as Kd, was 32 nM.
Take B6: the Kd in data set [4] worked out at 33 nM.
B7 registered a Kd in data set [4] of 91 nM.
Still for that read-out and setting: the result for B8 reads 71 nM.
In the case of B9, the “stoichiometry N” value in data set [3] came to 5 protomers in each ring.
As to B10, the “stoichiometry N” value in data set [5] is 1 zGDNF^mat protomers per zGFRα1 (10:10).
